1 substance from patent publication US20230134580A1 can be followed below.

The target of assay [1] is human TIGIT (T cell immunoreceptor with Ig and ITIM domains), expressed on cells (human) (UniProt Q495A1). In words: flow cytometry (CytoFlex), whole cell binding to cells expressing human TIGIT, MFI of AlexaFlour 488; one representative of three experiments. A general note: In flow cytometry, cells or beads pass a laser one at a time.
Assay [2] has the same target. In words: cell-based or functional assay.
Assay [3] concerns the target recombinant human TIGIT extracellular domain (ECD) (human) (UniProt Q495A1). In words: ELISA on recombinant human TIGIT ECD. A general note: ELISA stands for enzyme-linked immunosorbent assay.
Assay [4] deals with human TIGIT (T cell immunoreceptor with Ig and ITIM domains), expressed on cells (human) (UniProt Q495A1). In words: whole cell binding assays, n=3 (FIG. 10A).
Assay [5] addresses recombinant cynomolgus TIGIT (cynomolgus monkey). In words: ELISA on recombinant cyno-TIGIT.

Chain of human TIGIT (T cell immunoreceptor with Ig and ITIM domains), expressed on cells (human) (Q495A1 22-244 limits assumed): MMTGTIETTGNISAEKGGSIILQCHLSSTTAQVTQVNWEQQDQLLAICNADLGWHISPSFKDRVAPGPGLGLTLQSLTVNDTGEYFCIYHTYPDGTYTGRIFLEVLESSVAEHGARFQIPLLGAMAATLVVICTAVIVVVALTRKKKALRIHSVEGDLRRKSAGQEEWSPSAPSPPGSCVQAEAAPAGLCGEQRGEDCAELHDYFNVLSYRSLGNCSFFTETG
Chain of recombinant human TIGIT extracellular domain (ECD) (human) (Q495A1 22-138 limits assumed): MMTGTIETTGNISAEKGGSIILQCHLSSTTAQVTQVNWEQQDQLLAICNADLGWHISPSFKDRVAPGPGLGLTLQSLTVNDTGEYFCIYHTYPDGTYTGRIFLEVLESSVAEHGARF

By EC50 (read off the curve) is commonly meant the concentration needed to bring the measured effect to its halfway point. Usually EC50 stands for the midpoint of the concentration-response curve. A lower EC50 goes with an effect from little substance. As for “Reference Ab 2 (same amino acid sequences as Tiragolumab, U.S. 2017/0088613 A1) (antibody)”, the figures for the EC50 (read off the curve) in assay [1], in assay [3] and in assay [5] were 500 pM, 0.1 µg/mL and 0.1 µg/mL, respectively. In assay [2], this substance showed an EC50, NFAT luciferase reporter assay (n=3) of 720 pM. This substance yielded an EC50 in assay [4] of 610 pM.
